T1: hMPV F-DS-CavEs2-IPDS (human metapneumovirus (strain not …, N-linked glycan at Asn172 (partially modelled)))
T1 chain: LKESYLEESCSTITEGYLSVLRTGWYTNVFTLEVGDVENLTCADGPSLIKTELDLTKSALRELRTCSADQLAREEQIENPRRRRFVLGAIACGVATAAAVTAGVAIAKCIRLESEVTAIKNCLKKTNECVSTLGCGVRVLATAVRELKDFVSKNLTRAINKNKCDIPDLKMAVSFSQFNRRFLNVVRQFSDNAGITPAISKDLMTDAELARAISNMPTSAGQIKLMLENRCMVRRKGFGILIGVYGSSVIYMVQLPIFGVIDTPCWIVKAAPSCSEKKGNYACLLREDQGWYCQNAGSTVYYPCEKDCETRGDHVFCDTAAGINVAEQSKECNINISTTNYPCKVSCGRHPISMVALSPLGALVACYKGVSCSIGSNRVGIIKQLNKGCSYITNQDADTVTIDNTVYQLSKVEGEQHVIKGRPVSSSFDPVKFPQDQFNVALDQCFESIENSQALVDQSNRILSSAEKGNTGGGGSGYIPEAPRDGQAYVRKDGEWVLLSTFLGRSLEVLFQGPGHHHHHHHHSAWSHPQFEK


Assays:
RSV-F A2 (DS-Cav-1) = RSV-F A2 (DS-Cav-1) (Human respiratory syncytial virus A, …, UniProt P03420, stabilised); assay: ELISA
hMPV-F A1(NL/1/00) = hMPV-F A1(NL/1/00) (human metapneumovirus A1, strain NL/1/00, UniProt Q91F55, stabilised); assay: ELISA
[1] = biological target: RSV prefusion F trimer (competition assays) (human respiratory syncytial virus A, …, UniProt P03420, stabilised); assay: ELISA
hMPV F-DS-CavEs2-IPDS = biological target: T1, hMPV F-DS-CavEs2-IPDS; assay: cryo-EM structure

Binder | binding result (RSV-F A2 (DS-Cav-1)) | binding result (hMPV-F A1(NL/1/00)) | binding result [1] | stoichiometry N (hMPV F-DS-CavEs2-IPDS) [Fabs per trimer]
RM 5-1 (antibody, V domains shown) VH: QGQLVQSGPEVKKPGATVKVSCRASAYPFGNYGITWVRQVPGQGLEWVGWISAYTGHTKFPQNFQGRVTLTADTSTSTGYMELRSLTSDDTAVYYCARGPCCSSPRPYDIWGQGTMVTVSS VL: DIQMTQSPSTLSASVGDRVTITCRASQSIDDWLAWYQHSPGKAPKLLIYRASRLESGVPSRFSGSGSGTEFTLTISSLQPDDFASYYCQQCYTYSQTFGQGTRVEIK | binds | binds | binds | –
RM 5-1 Fab (Fab, V domains shown) VH: QGQLVQSGPEVKKPGATVKVSCRASAYPFGNYGITWVRQVPGQGLEWVGWISAYTGHTKFPQNFQGRVTLTADTSTSTGYMELRSLTSDDTAVYYCARGPCCSSPRPYDIWGQGTMVTVSS VL: DIQMTQSPSTLSASVGDRVTITCRASQSIDDWLAWYQHSPGKAPKLLIYRASRLESGVPSRFSGSGSGTEFTLTISSLQPDDFASYYCQQCYTYSQTFGQGTRVEIK | – | – | – | 3
